Experiment: yeast display, Sf9 membrane polyspecificity reagent, FACS + sequencing; frameworks hold sequencing errors
Procedure, shortened: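 After 36–48 hours of galactose induction, yeast (Saccharomyces cerevisiae BJ5465) displaying a synthetic nanobody library were stained at 4 °C for 1 hour with 10% biotinylated, detergent-solubilized Sf9 membrane reagent. Streptavidin microbeads enriched the stained cells before FACS sorting into low and high (top ~1%) gates on anti-HA and streptavidin fluorescence. Each clone's polyreactivity label reflects its gate of origin.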

| Sequence | polyreactivity (PSR sort gate) |
| --- | --- |
| QVQLVESGGGLVQAGGSLRLSCAASGYTIRYYAMGWYRQAPGKERDLVAAISSSGGNTYYADSVKGRFTISSDNAKNTVYLQMNSLKPEDTAVYYCAAAYHPYHRVTGHDGGYDYWGQGTQVTVSS | low polyreactivity |
| QVQLVESGGGLVQAGGSLRLSCAASGFTFCRYAMGWYRQAPGKEREFVAGISSSGGSTYYADSVKGRFTISRDNAKNTVYLQMNSLKPEVTAVYYCNKARYFTGQRYDYWGQGTQVTVSS | high polyreactivity |
| QDQLVESGGGLVQAGGSLRLSCAASGSNFVINAMGWYRQAPGKERELVAAISYSGTGTYYADSVKGRFTISRDNAKNTVYLQMNSLKPEDTAVYYCAGDYYYRYRIYDYWGQGTQVTVSS | low polyreactivity |
| QVQLVESGGGLVQAGGSLRLSCAASGSTFIGNAMGWYRQAPGKEREFVATISQNGGRTYYADSVKGRFTISRDNAKNTVYLQMNSLKPEDTAVYYCAADDWRWGYDYWGQGTQVTVSS | high polyreactivity |
| QVQLVESGGGLVQAGGSLRLSCAASGIIFYKYTMGWYRQAPGKERELVAAITKSGVRTYYADSVKGRFTISRDNAKNTVYLQMKSLKPEDTSVYYCAAKTPTKDRGSDFDYWGQGTQVTVSS | high polyreactivity |
| QVQLVESRGALVQAGRSLRLRCAASGLIFYLYAMGWYRQAPGKARELVAAINYSGGRTYYADSVKGRFTISRDNAKNTVYLQMNSLKPEDTAVYYCAAKSAGFQYNYWGHGTQVTVSS | high polyreactivity |
| QVQLVESGGGLVQAGGSLRLSCAASGFIFWFNAMGWYRQAPGKERELVATISWSDTSTYYADSVKGRFTISRDNAKNTVYLQMNSLKPEDTAVYYCATDGRETWLPEYYWGQGTQVTVSS | low polyreactivity |
| QLQLVESGGALVQAGGSLRFSCAASARTYGKNAMGWYRQAPGKERELDAAITWSGSSTYYADSVKGRFTISRHNAKNTVYLQMNSLKAEDTAVYYCAKEDWQLDYTVTWRKMDSWGQVTQVTVSS | low polyreactivity |
| QVQLVESGGGLVQAGGSLRLSCATSGSIFVFNAMGWYRQAPGKERELVAAIDTSDDITYYADSVKGRFTISRDNAKNTVYLQMISLKPEDTAVYYCNADTYGLVRYYIYHYEFDYWGQGTQVTVSS | high polyreactivity |
| QVQLVESGGGLVQAGGSLRLSGAASGGTFSTNAMGWYRQAPGKERELVAAISLSGGRTYADSEKGRFTISRDNAKNTVYLKMNSVKPEDTAVYYCNADSAGITRARSELDYWGQGTQVTVSS | low polyreactivity |
| QVQLVESGGGLVQAGGSLRLSCAASGSTFSWYTMGWYRQAPGKERELVAAISWSGGRTYYADSVKGRFTISRDNAKNTVYLQMNSLKPEDTAVYYCAAYDYWYSLGVYQFYYWGQGTQVTVSS | low polyreactivity |
| QVQLVESGGGLVQAGGSLPLSSAAYGSIFYYNAMGWYRQAPGKERELVAAISYSGDSTSYADSVKGRFTISRDNAKNYVFLQMYRLKPEDTAVFYCAAEQDYEDFYEDYYWGQGTQVTVSS | high polyreactivity |
| QVKLVESGGRLVQAGGSLRLSCAASGIIFFSYAMRSYRQAPGKERELVAAISGTGGNTYYADSVKGRFTISRDNAKNTVYFQMNSLKPEDTAVYYCAADQEWYYYFVSFAYYILDYWGQGTEVTVSS | high polyreactivity |
| QVQLVESVGGLVQAGGSLRLSCAASGITFYSYDMGWYRQAPGKERELVAAITYRGGSTYYADSVKGRFTISRDNAKNTVYLQMNSLKPEDTAVYYCNADLLPADAPLWVTGGDYWGQGTQVTVSS | low polyreactivity |
| QVQLVESGGGLVQAGGSLRLSCAASGITFRIYAMGWYRQAPGKEREFVAAINQRGGSTYYADSVKGRFTISRDNAKNTVYLQMNSLKPEDTAVYYCNADYSYVGEYDYWGQGTQVTVSS | low polyreactivity |
| QVQLVESGGGLVQAGGSLRLSCAASGRTFRFNAMGWYRQAPGKERELVAAISSSGDSTYYADSVKGRFTISRDNAKNTVYLQMNSLKPEDTAVYYCAVRSRTPRAYYYWGQGTQVTVSS | low polyreactivity |

| Sequence | polyreactivity (PSR sort gate) |
| --- | --- |
| QVQLVESGGGLVQAGGSLRLSCAASGSIFKTNAMGWYRQAPGKERELVAAIYRSDGTDYADSVKGRFTISRDNAKNTVYLQMNSLKPEDTAVYYCNADKWSVVGYVLGFYRDDYWGQGSQVTVSS | low polyreactivity |
| QVQLVESGGGLVQAGGSLRLSCAASGFIFYRYAMGWYRQAPGKEREFVAAISRSGGSTYYADSVKGRFTISRDNAKNTVYLQKNSLKPEDTAVYYCNTYQHGYYVAEYDYWGQGTQVTVSS | high polyreactivity |
| QVQLVESGGGLVQAGGSLRLSCDASGRTFKQNAMGWYRQAPGKERELVATIRNGVNTNYEDSVKGRFTISRDNAKNTVYLQMNSLKPEDTAVYYCAARYWQAHAFQGNTGYSWQYGYWGQGTQVTVSS | high polyreactivity |
| QVQLVESGGGLVQAGGSLRLSCAASGSTFRWNAMGWYRQAPGKERELVAAISNGGSTNYADSVKGRFTISRDNAKNTVYLQMNSLKPEDTAVYYCATDGWYGQHYYDYDFDYYYWGQGTQVTVSS | low polyreactivity |
| QVQLVESGGGLVQAGGSLRLSCAASGNTFVDYAMVWYRQAPGKERELVAAIDQTGGSTYYADSVKGRFTISRDNAKNTVYLQMNSLKPEDTAVYYCARDLAYRKDLYPRWYDYWGQGTQVTVSS | low polyreactivity |
| QVQLVESGGGLVQAGGSLRLSCAASGRIFGWNAMGWYRQPPGKERELVAAISADGNTYYADSVKGRFTISRDNAKNTVYLQMNSLKPEDTAVYYCNAYVYSGYSIRDYWGQGTQVTVSS | high polyreactivity |
| QVQLVESGGGLVQAGGSLRLSCAASGLIFPGYAMGWYRQAPGKERELVAAIDWSGGSTYYADSVKGRFTISRDYAKNTVYLQMNSLKPEDTAVYDCNADGYLSYAFDYWGQGTQVTVSS | low polyreactivity |
| QVQLVESVGGLVQAGGSLRLSCAASGSTFIQYAMGRYRHAPGKERELVASNSRSAGSTYYADSVKGRFTISRDNAKNTVYLQMNSLKPEDTAVYYCAADSYYLGYYLGSYSWDYGYWGQGTQVTVSS | high polyreactivity |
| QVHLVESGGGLVQAGGSLRLSSAASGNIFESYALGWYRQAPGKERELVAAISGSGDSTNYADSVKGRFTISRDNAKNSVYLQMNSLKPEDTAVYYCAARPEVRHQYRRYDYWGQGTQVTVSS | low polyreactivity |
| QVQHVESGGGLVQAGGSLRLSCAASGRTFAHYAMGWYRQAPGKERELVAAISWGGTRTYYADSVKGRFTISRDNAKNTVYLQMNSLKPEDTAVYYCAADYGYQDDYWGQGTQVTVSS | low polyreactivity |
| QVQLVESGGGLVQAGGSLRLSCAASGRTFYFYAMGWYRQAPGKERELVASITSSGGNTYYADSVKGRVTISRDNAKNTVYLQMNSLKPEDTAVYYCAARWFPWLQWKRYDYWGQGTQVTVSS | low polyreactivity |
| QVQLVESGGGLVQAGGSLRLSCAASGSTFGVNAMGWYRPAPGKERELVAAISSSGSSTYADSVKGRFTISRDNAKNTVYLQMNSLKPEDTAVYYCNKTTLLTVEYDYWGQGTQVTVSS | low polyreactivity |
| QDQLVESGGGLVQAGASLRLSCAASGRISYYYTMGWYRQAPGKERELVAAISWSGGTTYYADSVKGRFTISRDNAKNTVYLQMNSLKPDDTAVYYCAAREYYTDVHGTRRYDYWGQGTQVTVSS | low polyreactivity |
| QVQLVESGGGLLQAGGSLRLSCAASGSTYFGNAMGWDRQAPGKERELVAAITSGGSTNYADSVKGRFTISRDNAKNTVYLQMNSLKPEDTAVYYCAKPSRWGWTGFYAYDYWGQGTQVTVSS | low polyreactivity |
| QVQLVESGGRLVQAGGSLRLSCAASGFIFKYYAMGWYRQAPGKEREFVAAITWSGSSTNYADSVKGRFTISRDNAKNTVYLQMNSLKPEDTAVYYCNADRKYYKYDYWGQGTQVTVSS | high polyreactivity |

— the nanobody polyreactivity screen of Harvey et al. (2022)
